Molecular target: p53 (UniProt P04637)
Assay: anti-Flag IP, anti-HA blot
Conditions: reference: HA-STAT1 wild type; sites Y701

Substance: STAT1 (from UniProt P42224) HA-STAT1-Y701F
- binding against the reference: weaker

Source: paper PMC11754596
